What was measured:
Assay in all cases: purified protein
Conditions in all cases: 20 mM Tris-HCl pH 8.5, 50 mM NaCl, 100 µg/ml BSA, 37°C
[1] = system: Nc1nc2c(ncn2[C@@H]2O[C@H](CO)[C@@H](OP(=O)(O)OC[C@H]3O[C@@H](n4ccc(=O)[nH]c4=O)[C@H](O)[C@@H]3OP(=O)(O)O)[C@H]2O)c(=O)[nH]1
[2] = system: Nc1nc2c(ncn2[C@@H]2O[C@H](CO)[C@@H](OP(=O)(O)OC[C@H]3O[C@@H](n4ccc(=O)[nH]c4=O)[C@H](O)[C@@H]3OP(=O)(O)OC[C@H]3O[C@@H](n4cnc5c(N)ncnc54)[C@H](O)[C@@H]3O)[C@H]2O)c(=O)[nH]1
[3] = system: Nc1nc2c(ncn2[C@@H]2O[C@H](COP(=O)(O)O[C@H]3[C@@H](O)[C@H](n4ccc(=O)[nH]c4=O)O[C@@H]3CO)[C@@H](OP(=O)(O)OC[C@H]3O[C@@H](n4ccc(=O)[nH]c4=O)[C@H](O)[C@@H]3O)[C@H]2O)c(=O)[nH]1
[4] = system: Nc1nc2c(ncn2[C@@H]2O[C@H](COP(=O)(O)O[C@H]3[C@@H](O)[C@H](n4ccc(=O)[nH]c4=O)O[C@@H]3CO)[C@@H](OP(=O)(O)OC[C@H]3O[C@@H](n4ccc(=O)[nH]c4=O)[C@H](O)[C@@H]3OP(=O)(O)O)[C@H]2O)c(=O)[nH]1
[5] = system: Nc1nc2c(ncn2[C@@H]2O[C@H](COP(=O)(O)O[C@H]3[C@@H](O)[C@H](n4ccc(=O)[nH]c4=O)O[C@@H]3CO)[C@@H](OP(=O)(O)OC[C@H]3O[C@@H](n4ccc(=O)[nH]c4=O)[C@H](O)[C@@H]3OP(=O)(O)OC[C@H]3O[C@@H](n4cnc5c(N)ncnc54)[C@H](O)[C@@H]3O)[C@H]2O)c(=O)[nH]1
[6] = system: Nc1nc2c(ncn2[C@@H]2O[C@H](COP(=O)(O)O[C@H]3[C@@H](O)[C@H](n4cnc5c(N)ncnc54)O[C@@H]3CO)[C@@H](OP(=O)(O)OC[C@H]3O[C@@H](n4ccc(=O)[nH]c4=O)[C@H](O)[C@@H]3OP(=O)(O)OC[C@H]3O[C@@H](n4cnc5c(N)ncnc54)[C@H](O)[C@@H]3O)[C@H]2O)c(=O)[nH]1

E5-CRD (colicin E5 C-terminal ribonuclease domain) (Escherichia coli)
Km [1]: 32.9 (5.5) μM
kcat [1]: 42.9 s⁻¹
kcat/Km [1]: 1.3e+06 M⁻¹ s⁻¹
Km [2]: 53.6 (16) μM
kcat [2]: 11.7 s⁻¹
kcat/Km [2]: 218000 M⁻¹ s⁻¹
Km [3]: 143 (38) μM
kcat [3]: 3.57 s⁻¹
kcat/Km [3]: 25100 M⁻¹ s⁻¹
Km [4]: 41.3 (16) μM
kcat [4]: 34 s⁻¹
kcat/Km [4]: 823000 M⁻¹ s⁻¹
Km [5]: 59.5 (18) μM
kcat [5]: 84.2 s⁻¹
kcat/Km [5]: 1.41e+06 M⁻¹ s⁻¹
Km [6]: 90.6 (23) μM
kcat [6]: 65.8 s⁻¹
kcat/Km [6]: 730000 M⁻¹ s⁻¹
